Results reported in PMC4998004, “aPKC Inhibition by Par3 CR3 Flanking Regions Controls Substrate Access and Underpins Apical-Junctional Polarization” (Developmental Cell, 2016).
Substitutions are numbered along the chain they refer to. In names and notes the source's numbering stands. Residues, ends and D or L forms follow the SMILES beside them. No end group written: not given here.

T1: PKCιKD-2P (primed human PKC-iota kinase domain) (Homo sapiens, UniProt P41743, C595S)
T1 construct: encoding residues 248–596 (GenBank: NM_002740.5); GST (followed by a 3C protease site) (N, cleaved yes); made in house; host or cells: Hi5 insect cells, baculovirus, co-infected with a PDK-1 virus
T1 sequence (P41743 248-596 C595S): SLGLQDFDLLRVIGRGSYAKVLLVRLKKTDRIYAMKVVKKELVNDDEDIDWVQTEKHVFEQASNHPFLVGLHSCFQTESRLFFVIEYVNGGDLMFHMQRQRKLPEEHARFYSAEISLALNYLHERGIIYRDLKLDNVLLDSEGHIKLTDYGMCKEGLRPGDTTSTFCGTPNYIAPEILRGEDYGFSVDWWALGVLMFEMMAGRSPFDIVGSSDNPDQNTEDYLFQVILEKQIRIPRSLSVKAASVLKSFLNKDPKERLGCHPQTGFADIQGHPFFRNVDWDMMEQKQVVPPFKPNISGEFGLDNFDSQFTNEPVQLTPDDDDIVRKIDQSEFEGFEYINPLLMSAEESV

T2: human PKC-iota kinase domain, primed active form (PKCιKD-2P) (human, UniProt P41743 248-596, phosphothreonine at 412 and 564 (pT412, pT564))
T2 chain: T1 sequence (P41743 248-596 C595S) with S348C

T3: human PKC-iota kinase domain, primed active form (PKCιKD-2P) (human, UniProt P41743 248-596, phosphothreonine at 412 and 564 (pT412, pT564))
T3 construct: human PKC-iota (PKCι) kinase domain, residues 248-596 of GenBank NM_002740.5; Details of the construct are in the Supplemental Experimental Procedures and in Kjaer et al., 2013; also called primed PKCι kinase domain; PKCι-2P; source: Hi5 cells, baculovirus, co-infection with a PDK-1 virus
T3 sequence (looked up): T1 sequence (P41743 248-596 C595S) with S348C

T4: human PKC-iota kinase domain, partially primed low-activity form (PKCιKD-1P) (human, UniProt P41743 248-596, partially primed: one of the two priming sites pT412 and pT564 phosphorylated)
T4 chain: T1 sequence (P41743 248-596 C595S) with S348C

B1: human Par3 conserved region 3 peptide, residues 816-834 (Par3CR3) (peptide, UniProt Q8TEW0 816-834, looked up)
peptide: LAFQREGFGRQSMSEKRTK
modifications: also: fluorescein label (position not given here)
notes: also called wild-type Par3CR3; source: synthetic peptide

Legend:
Par6-PKCι-Cdc42 complex = experiment: In vitro activity of activated Par complex (data not shown); assay type: biochemical
[1] = biological target: T1, PKCιKD-2P (primed human PKC-iota kinase domain); experiment: In vitro kinase assay (ADP Quest), peptide as substrate, Michaelis-Menten kinetics; assay type: biochemical; details: in vitro kinase assay
Description: (§1) The ADP Quest kit (DiscoveRx) was used to determine the kcat app and KM app values for ATP against the PKCιKD-1P and PKCιKD-2P using a series of synthetic peptide substrates as described by [Kjaer et al. (2013)]. The reactions were measured every 2 min for 30 min in a 384-well plate using a Safire^2 plate reader (Tecan). The kinetic constants were determined by fitting the data to the Michaelis-Menten equation. Data are represented as mean ± SEM. Fluorescence anisotropy assays were performed to determine the KD for each peptide labeled with a fluorescein tag following standard protocols using a Safire^2 plate reader (Tecan). The anisotropy values were normalized and the KD was determined using non-linear regression. All experiments were performed in triplicate and for at least three independent protein preparations.
The ADP Quest kit (DiscoveRx) was used to determine the kcat app and Km app values for ATP against the PKCι KD-1P and PKCι KD-2P. The assay uses a coupled reaction to convert ADP to a product that has a fluorescence excitation at 530 nm and emission at 590 nm. Several synthetic peptide substrates were used including a model peptide […]
([…]) derived from a PKCε pseudo-substrate sequence with an alanine-serine change. We found this peptide to be an efficient substrate peptide for aPKC isozymes. Peptides from human Par3CR3 (residues 816-835) and F-X-R short […]
(§2) peptide ([…]) related to the Nishikawa and co-workers consensus were also used in the study (Nishikawa et al., 1997). For the kcat app and Km app reactions, the ATP concentration ranged from 0-200 µM, while the synthetic peptide substrates were kept constant at 200 µM to avoid product inhibition. The reactions were measured every two minutes for 30 minutes in a 384-well plate using a Safire 2 plate reader (Tecan). The kinetic constants were determined by fitting the data to Michaelis–Menten equation using the graphics program Prism (GraphPad Prism, version 5.0d, GraphPad Software). […]

[2] = biological target: T1, PKCιKD-2P (primed human PKC-iota kinase domain); experiment: In vitro kinase assay (ADP Quest), inhibition of phosphorylation of a model substrate peptide; assay type: biochemical; details: Figures 1C, S5C
Description: as §1, with “All experiments were performed in triplicate and for at least three independent protein preparations.” left out
The ADP Quest kit (DiscoveRx) was used to determine the kcat app and Km app values for ATP against the PKCι KD-1P and PKCι KD-2P. The assay uses a coupled reaction to convert ADP to a product that has a fluorescence excitation at 530 nm and emission at 590 nm. […]
as §2, with “For the kcat app and Km app reactions, the ATP concentration ranged from 0-200 µM, while the synthetic peptide substrates were kept constant at 200 µM to avoid product inhibition.” left out

[3] = biological target: PKCι kinase domain, 248-596 (UniProt P41743); experiment: fluorescence anisotropy, fluorescein-labelled peptide; details: reference: unphosphorylated Par3CR3 peptide; sites S827
[4] = biological target: T2, human PKC-iota kinase domain, primed …; experiment: FP
[5] = biological target: T3, human PKC-iota kinase domain, primed …; experiment: fluorescence polarisation; fluorescence anisotropy of fluorescein-labelled peptide with PKCι kinase domain; Safire2 plate reader; anisotropy normalised, KD by non-linear regression; triplicate, at least three independent protein preparations; details: both partners purified
[6] = biological target: T3, human PKC-iota kinase domain, primed …; experiment: cell-based or functional assay
[7] = biological target: T4, human PKC-iota kinase domain, partially …; experiment: FP
[8] = biological target: T2, human PKC-iota kinase domain, primed …; experiment: FP

Row | Molecule | inhibition of PKCι catalytic activity in vitro (in words) [2] | Kd [4] | Kd [5] | other results
1 | CSCC[C@H](NC(=O)[C@H](CO)NC(=O)[C@H](CCC(N)=O)NC(=O)[C@H](CCCNC(=N)N)NC(=O)CNC(=O)[C@H](Cc1ccccc1)NC(=O)CNC(=O)[C@H](CCC(=O)O)NC(=O)[C@H](CCCNC(=N)N)NC(=O)[C@H](CCC(N)=O)NC(=O)[C@H](Cc1ccccc1)NC(=O)[C@H](C)NC(=O)[C@@H](N)CC(C)C)C(=O)N[C@@H](CO)C(=O)N[C@@H](CCC(=O)O)C(=O)N[C@@H](CCCCN)C(=O)N[C@@H](CCCNC(=N)N)C(=O)N[C@H](C(=O)N[C@@H](CCCCN)C(=O)O)[C@@H](C)O [Par3CR3] (H-LAFQREGFGRQSMSEKRTK-OH; N-terminus and C-terminus assumed) |  |  |  | inhibition of activated Par complex (in words) (Par6-PKCι-Cdc42 complex): potently inhibited
2 | FKRQGSVRRR [F-X-Rshort peptide, artificial PKCι substrate resembling the aPKC consensus motif of Nishikawa et al] | does not inhibit |  |  | phosphorylation as substrate by PKCι in vitro (in words) [1]: efficient PKCι substrate
3 | Kibra-derived peptide: Kibra-derived peptide (residues 919–978) with F-X-R motif anchor and K-R inhibitory motif (LRGSTIIRSKTFSPGPQSQYVCRLNRSDSDSSTLSKKPPFVRNSLERRSVRMKRPSSVKS) | potently inhibit |  |  | 
4 | Par3 CR3, 816-834 (from UniProt Q8TEW0) phospho-S827 Par3CR3 peptide |  |  |  | fold change [3]: weaker
5 | B1 |  | 730 nM | 470 nM | apparent IC50 of the block of phosphorylation of a model substrate peptide by PKCιKD-2P, in vitro kinase assay [6]: 450 nM; Kd [7]: 53600 nM; Kd [8]: 410 nM
6 | LAFQREGFGRQAMSEKRTK (peptide, UniProt Q8TEW0 816-834, looked up, also: fluorescein label (position not given here), source: synthetic peptide) [Par3CR3 S827A mutant peptide] |  | 690 nM | 970 nM | 
